We go through three molecules from patent publication US7410767.

The target in test [1] is T1, HLA-E (as used in the in vitro peptide binding assay and in immunoprecipitation) (human), P13747. The test is described as follows: in vitro peptide binding assay (ratio of optical densities); row .221-B*5501.
Test [2] concerns the target T1, HLA-E (as used in the in vitro peptide …). The test is described as follows: in vitro peptide binding assay (ratio of optical densities); row .221-A*3601.
The target is the same in test [3]. Put plainly: in vitro peptide binding assay (ratio of optical densities); row .221-A*0201.
Test [4] has the same target. Put plainly: in vitro peptide binding assay (ratio of optical densities); row .221-A*0211.
Test [5] has the same target. Put plainly: in vitro peptide binding assay (ratio of optical densities); row .221-A*2403.
Test [6] has the same target. The test is described as follows: in vitro peptide binding assay (ratio of optical densities); row .221-A*2501.

Regarding VTAPRTLLL (modifications not checked), the Concentration of peptide required to obtain 50% of binding to HLA-E in test [1] is more than 100 µM.

In the case of VMAPRTLLL (modifications not checked), the Concentration of peptide required to obtain 50% of binding to HLA-E in test [2] came to 0.3 µM.

As to VMAPRTLVL (modifications not checked), the Concentration of peptide required to obtain 50% of binding to HLA-E in test [3], in test [4], in test [5] and in test [6] was 0.06 µM throughout.
